B1: Human Leukocyte Elastase (protein)
chain: IVGGRRARPHAWPFMVSLQLRGGHFCGATLIAPNFVMSAAHCVANVNVRAVRVVLGAHNLSRREPTRQVFAVQRIFENGYDPVNLLNDIVILQLNGSATINANVQVAQLPAQGRRLGNGVQCLAMGWGLLGRNRGIASVLQELNVTVVTSLCRRSNVCTLVRGRQAGVCFGDSGSPLVCNGLIHGIASFVRGGCASGLYPDAFAPVAQFVNWIDSIIQ

What was measured:
[1] = test system: SELP815K 6-mer
[2] = test system: SELP815K-MMPRS 6-mer
[3] = molecular target: SELP415K
[4] = molecular target: SELP47K
[5] = molecular target: SELP815K 6-mer; remark: listed apart in the source

Row | Molecule | SDS-PAGE analysis of enzymatic digestion [1] | Young's modulus of hydrogel [1] | protein loss from hydrogel in the presence of MMPs [1] | total release of 100 nm fluorescent nanoparticles from hydrogel at two weeks (no treatment 9.3%) [1] | SDS-PAGE analysis of enzymatic digestion [2] | higher protein loss from hydrogel compared to control (2 weeks, 10 nM MMP) [2] | increase of nanoparticle release compared to control [2] | percentage of total polymer per hydrogel lost (control about 24%) [2] | total release of 100 nm fluorescent nanoparticles from hydrogel at two weeks (no treatment 8.2%) [2] | loss in Young's modulus of hydrogel [2] | soluble fraction release from hydrogel (elastase degradation) [3] | soluble fraction release from hydrogel (elastase degradation) [4] | soluble fraction release from hydrogel (elastase degradation) [5]
1 | MMP-2 | SELP815K without the responsive sequence is not | there was no significant effect present in the standard SELP-815K polymer | SELP815K displayed statistically insignificant levels of increased protein loss in the presence of MMPs | MMP-2 and MMP-9 treatment conditions yielded release of 12.1% and 9.4%, respectively | SELP815K-MMPRS is digested by MMP-2 and MMP-9 | 63% and 44% higher protein loss compared to control | increases of 65% and 95% compared to control | enzymatic digestion increasing this percentage to 39% and 35% for MMP-2 and MMP-9-induced degradation, respectively | treatment with MMP-2 and MMP-9 caused release of 13.5% and 16% respectively |  |  |  | 
2 | MMP-9 | SELP815K without the responsive sequence is not | there was no significant effect present in the standard SELP-815K polymer | SELP815K displayed statistically insignificant levels of increased protein loss in the presence of MMPs | MMP-2 and MMP-9 treatment conditions yielded release of 12.1% and 9.4%, respectively | SELP815K-MMPRS is digested by MMP-2 and MMP-9 | 63% and 44% higher protein loss compared to control | increases of 65% and 95% compared to control | enzymatic digestion increasing this percentage to 39% and 35% for MMP-2 and MMP-9-induced degradation, respectively | treatment with MMP-2 and MMP-9 caused release of 13.5% and 16% respectively | MMP-9 affected a 24% loss |  |  | 
3 | B1 |  |  |  |  |  |  |  |  |  |  | SELP415K appears to be the most sensitive to elastase degradation | SELP815K at 8 wt % is more resistant to degradation than SELP47K and SELP415K at 12 wt % | SELP815K shows the lowest sensitivity to degradation
